The record followed here is the supplement of paper PMC12042874.

± gives the uncertainty stated by the source.

A short description of this data set: amyloid nucleation score (Sup35N fusion, yeast selection) (log enrichment); library NNK3; higher = more nucleation; inactive = no reads after selection. In short, it runs like this: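 After 24 hours of induction with 100 μM copper sulfate, psi-negative yeast expressing peptides of 20 random codons fused to Sup35N were grown for 7 days at 30°C on medium lacking adenine and uracil. Input and output plasmid inserts were sequenced with Illumina, and sequences with under 100 input reads were discarded. Scores for nucleation are the DiMSum log enrichment of output over input reads, centred on the mode score of non-aggregating sequences.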

With VSSAYLKCSFLKNLAVSLYG, the amyloid nucleation score result was “inactive”. With PYHGSSMLKIRVRGD, the amyloid nucleation score result was “inactive”. As to LVIASGRVIVIVCYV, the amyloid nucleation score result was “inactive”. For RFIVCCKTGCVY, the amyloid nucleation score entry was “inactive”. In the case of EFVFECLYGTLLGRALMLRP, the amyloid nucleation score result is “inactive”. To RRHLITSVHQTLIVVGFDPR belongs “inactive”. The substance SDIYWNGGLMYWICSMSVFI came in with an amyloid nucleation score of 2.84 ± 0.078. Consider VHVRLQAPFPEAL, for which the amyloid nucleation score entry was “inactive”.

Take GYRDLRGWNVNRKDSLVS: the amyloid nucleation score entry is “inactive”. For the substance KGLASSYRTTYAVDL, the amyloid nucleation score entry was “inactive”.

Turning to ALGTSEGRLQLSYDNHGVVL, the amyloid nucleation score entry is “inactive”. RRLSM: the amyloid nucleation score result was “inactive”.

Substance AYLLSIANCFSAVYLHPSDS returned an amyloid nucleation score of 0.216 ± 0.56. The substance YRNNAFPSEMHPIGRLEYAV registered an amyloid nucleation score of 0.456 ± 0.15. Consider VVYDPVICDGWALDGGVGAR, for which the amyloid nucleation score entry was “inactive”. Consider VTLMILKGVFKFM, for which the amyloid nucleation score is -0.136 ± 1. The result for HKDMVNASLPGITSARWLGR reads “inactive”; that for LYISNFANEINA, “inactive”; that for VLASWASYPTGSQSKGGERT, “inactive”. Consider LRWIGH, for which the amyloid nucleation score entry is “inactive”. The result for RAFLL reads “inactive”; that for VFFFMELEYSYFEY, “inactive”; that for HITLRYLNL, 0.692 ± 0.12.

For SHWYIYSYSVDPCAGHAAVW, the amyloid nucleation score result is “inactive”.

Take TVYYTLFATIWMLGVFFLNN: the amyloid nucleation score result was “inactive”.

VLRRLGWICL: the amyloid nucleation score entry is “inactive”. FYLTR: the amyloid nucleation score entry is “inactive”.

For PRYFSRASSKNSRF, the amyloid nucleation score entry was “inactive”. Turning to IQWMLCAKANLIEYKGVFFI, the amyloid nucleation score result is “inactive”. Regarding FCHLLVMLFYKGPKVFCIVM, the amyloid nucleation score result was “inactive”. Regarding YVMHWSVAEVLRSLCVNHVR, the amyloid nucleation score result is “inactive”. Turning to RRTDGATEACISTSGPEYIV, the amyloid nucleation score entry was “inactive”. In turn, SRSCNVLSEWRGINVNGWGN displayed an amyloid nucleation score of -0.176 ± 1.1.

The substance VNGFFLVACTCSYFNNRSSW returned an amyloid nucleation score of 1.57 ± 0.12.

As for APAKTYIACC, the amyloid nucleation score entry is “inactive”. With NDQKIPLARYLG, the amyloid nucleation score entry is “inactive”.

For MSPWSRMF, the amyloid nucleation score entry is “inactive”. As for CFYIKKSKVGLGHWINHV, the amyloid nucleation score result is “inactive”. Turning to NSGLSIVWDWLDCFSGMKYS, the amyloid nucleation score result was “inactive”. Consider VQLIWDFYSCSN, for which the amyloid nucleation score result was “inactive”. For the substance ELNMAVDAVYCTGSVHKIVF, the amyloid nucleation score is 1.36 ± 0.13.

As to SFLSWMVFANFKRVHPGWVP, the amyloid nucleation score result is “inactive”.

Regarding VICLLPLT, the amyloid nucleation score was 0.099 ± 0.3. To MKRGWFELMIHWDYI belongs “inactive”; to SVCLSDRSSGS, “inactive”; to LIELSSSPRSYGHQVLM, “inactive”. To IELERMNGL belongs “inactive”.

As for LFGTNQYYNY, the amyloid nucleation score result is “inactive”.

As to ICTECAYFSTWRHSMCITWG, the amyloid nucleation score result was “inactive”. Turning to VIPFPFNLGDYCRMFDPRRS, the amyloid nucleation score result is “inactive”. To LVGGTTLLIPVCS belongs “inactive”. Turning to FCQSFWLLQLARMPCYVESQ, the amyloid nucleation score result is “inactive”.

Regarding TIEFWGRVAGFLLM, the amyloid nucleation score result is “inactive”.

In the case of YYTGCHSSVSC, the amyloid nucleation score entry was “inactive”.

In the case of GYDAGAWPRWRRSIWVHGYG, the amyloid nucleation score result was “inactive”. Turning to SGSDILISYLLFCYNACLTF, the amyloid nucleation score result was “inactive”.

QISEFKDVLLCVCVKISLGR yielded an amyloid nucleation score of 1.7 ± 0.09. As for HALGVSGRFDNNVVIFARGS, the amyloid nucleation score entry is “inactive”. Consider FRESFLSSYVEYMTLGPGSN, for which the amyloid nucleation score is -0.342 ± 0.87. The result for VPLTRSKYYFRSWRWIDCGG reads “inactive”; that for TFLKGSLFCCYYTRDAVDYI, 2.64 ± 0.054. Substance TVTWFDINCMVGFLY showed an amyloid nucleation score of 0.431 ± 0.68. As for LPAMIGIWCILTH, the amyloid nucleation score result is “inactive”. As for DVNVALIHSDL, the amyloid nucleation score result was “inactive”.

With RFWMRKY, the amyloid nucleation score entry was “inactive”.

On to RIINCDKLSQTTALYIKTFM, for which the amyloid nucleation score entry was “inactive”. RSTVHRYSCDNCVEVIISKQ gave an amyloid nucleation score of 1.18 ± 0.12. With QQCCTLVCWRRMI, the amyloid nucleation score entry is “inactive”. For the substance RFDWRLSCTGRNMVASLLFV, the amyloid nucleation score result was “inactive”.

In the case of FSPFYCHILLH, the amyloid nucleation score result is “inactive”. For HNRKYYTI, the amyloid nucleation score result is “inactive”.

As to GVNDRGDENGVVGA, the amyloid nucleation score result was “inactive”. To KSGICGCVGHLVHKPMQLRV belongs “inactive”; to GVLQLNVIVTYFVMDMCSWL, 1.78 ± 0.095; to HYKLSSMVSVYLLTIL, -0.307 ± 0.88. The result for RCSWKTLPMYLMYCCTACHS reads “inactive”.

Consider VYLRSISFVRTRQMVWCLLP, for which the amyloid nucleation score result was “inactive”. With CVVIFICPQKG, the amyloid nucleation score was determined as 0.811 ± 0.26. For the substance EIKSDICFGFVYTTS, the amyloid nucleation score entry is “inactive”. On to RDISIFRFRYTRRSWWLSFG, for which the amyloid nucleation score result was “inactive”.

Consider LGYDWRDVNNGK, for which the amyloid nucleation score entry was “inactive”. As for PRKTFVKCNRRLNSW, the amyloid nucleation score entry was “inactive”. For IIVVCDSDRLFLPNQPPNVI, the amyloid nucleation score result is “inactive”. To MIYSTRSVFDFCGTFNTVVY belongs “inactive”. In the case of IRRDLYQATPRNLVWAYFGW, the amyloid nucleation score result was “inactive”. For KLDLKCIIRHWV, the amyloid nucleation score entry was “inactive”.

In the case of RLLKFASYFVKDSRYNPDCF, the amyloid nucleation score result was “inactive”. Consider TRMWYGLLAENGCAYLGCNW, for which the amyloid nucleation score result was “inactive”.

Regarding ENVLVVRMDRVLY, the amyloid nucleation score result is “inactive”.

Regarding NSVRLFKNFQWWAFSRHSRL, the amyloid nucleation score entry is “inactive”.

As for RCLTEA, the amyloid nucleation score result was “inactive”. Consider FEVIFYSGYAYLACPRRQCH, for which the amyloid nucleation score result was “inactive”. For LSIGFNLWSKLKYSRKVSGM, the amyloid nucleation score entry was “inactive”. For HKRTTNIPFRFSNLC, the amyloid nucleation score result was “inactive”.

In turn, HLMFCNHMALCVFFLQQEF yielded an amyloid nucleation score of 2.21 ± 0.074.

Consider ARPMIPMCLLQRAMYPLYSP, for which the amyloid nucleation score result was “inactive”. Turning to DYKKVGDSLFTVFVFRFINV, the amyloid nucleation score result was “inactive”. With VWRHQDLGARAKAASHG, the amyloid nucleation score result was “inactive”. On to NIRICWG, for which the amyloid nucleation score was 0.795 ± 0.27. Turning to NCVPSCSAAFKSISRQPHGS, the amyloid nucleation score came to 0.115 ± 0.88. As to GDGYRQRVLLWMLVSAGPAS, the amyloid nucleation score result was “inactive”. The substance VIICIAGGLPMRTH displayed an amyloid nucleation score of 1.71 ± 0.06. For NGVLASWWC, the amyloid nucleation score entry is “inactive”.

For SLKSPLRCFLILHSPALCLG, the amyloid nucleation score result was “inactive”. Turning to ADTTCHFACKPKLDFLRKTT, the amyloid nucleation score entry is “inactive”.

For CFLYLLLQTN, the amyloid nucleation score result was “inactive”. With SNLVPMQCVIL, the amyloid nucleation score result is “inactive”.

FAFAEERADLWSN: the amyloid nucleation score result is “inactive”. LLNCGLMLLRIDVCRATYYV showed an amyloid nucleation score of 1.36 ± 0.14. As to TRHLMLVLSWFLHRKNISRG, the amyloid nucleation score entry is “inactive”. In the case of SRITYEGQSRGCTLGNGLKR, the amyloid nucleation score entry was “inactive”. As for SNPLYGSDMQVHYF, the amyloid nucleation score worked out at 1.16 ± 0.14.

Regarding DLAFGMSFDWT, the amyloid nucleation score result is “inactive”. FKWQEW: the amyloid nucleation score is -0.943 ± 1.3. On to NRFQLVSRYAWHSWVK, for which the amyloid nucleation score result was “inactive”.

Substance NMCDNMQQIMVSGYVVVWVY showed an amyloid nucleation score of 1.19 ± 0.15.

Take MIRWAYLCM: the amyloid nucleation score entry is “inactive”. As to YTWYCFCRC, the amyloid nucleation score came to 2.44 ± 0.055. The result for ICDDMVGVC reads “inactive”; that for GFAMVLSWLKSGFPISRDLR, “inactive”; that for LNTNWCSSK, “inactive”.

FWEYVRKLIEYEYLGSR: the amyloid nucleation score result is “inactive”. With FAGCLGHPLERYVHLAWV, the amyloid nucleation score entry is “inactive”. Regarding VNCWTNYRYQGSDFIMSYIR, the amyloid nucleation score result was “inactive”. For VKTNVCTTYGHY, the amyloid nucleation score result was “inactive”. Take TQRICRWLMVVWCDGRETHE: the amyloid nucleation score stood at 0.403 ± 0.35. Consider VQSFGPNFD, for which the amyloid nucleation score result was “inactive”. The result for RSGKVSFFIGYNVVGLMRFR reads “inactive”. Take RRKRSQSE: the amyloid nucleation score entry was “inactive”.

On to RHGFWSVSFVSRQFSNILSC, for which the amyloid nucleation score result was “inactive”. The result for DHCGNFEDRWICVINNMRVS reads “inactive”; that for WLRLIA, “inactive”. Take NVYTPSIFACWSLCEGFFGI: the amyloid nucleation score was found to be 2.2 ± 0.063.
